Values belong to the binder of their own block, whether it stands above or below them.
What was measured:
human VEGF165 [1] = target: T1, human VEGF165 (human, UniProt P15692-4 27-191); assay: comparison of affinity for VEGF, reference Avastin
human VEGF165 [2] = target: T1, human VEGF165; assay: binding assay on purified fusion protein (quality testing)
human VEGF165 [3] = target: T1, human VEGF165; assay: solution binding: human VEGF incubated 1 h at 37 C with dilutions of binder, free VEGF measured by ELISA kit

T1 sequence (P15692 other isoform, or with tags, fused parts or gaps limits assumed): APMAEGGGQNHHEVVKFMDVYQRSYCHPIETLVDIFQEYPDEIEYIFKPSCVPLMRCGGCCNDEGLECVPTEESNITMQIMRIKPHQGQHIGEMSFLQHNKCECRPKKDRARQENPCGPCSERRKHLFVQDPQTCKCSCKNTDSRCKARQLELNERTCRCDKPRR

fold affinity against Avastin (human VEGF165 [1]): 50 fold
IC50 (human VEGF165 [2]): ≤ 50 pM
IC50 (human VEGF165 [3]): 10 pM
B1: FP3′ (FLTd2-KDRd3-KDRd4-Fc chimeric fusion protein) (Fc fusion)
chain: GRPFVEMYSEIPEIIHMTEGRELVIPCRVTSPNITVTLKKFPLDTLIPDGKRIIWDSRKGFIISNATYKEIGLLTCEATVNGHLYKTNYLTHRQTNTIIDVVLSPSHGIELSVGEKLVLNCTARTELNVGIDFNWEYPSSKHQHKKLVNRDLKTQSGSEMKKFLSTLTIDGVTRSDQGLYTCAASSGLMTKKNSTFVRVHEKPFVAFGSGMESLVEATVGERVRIPAKYLGYPPPEIKWYKNGIPLESNHTIKAGHVLTIMEVSERDTGNYTVILTNPISKEKQSHVVSLVVYVPP

IC50 (human VEGF165 [3]): 30 pM
B2: VEGF-TRAP (FP1′, FLTd2KDRd3-Fc) (Fc fusion, UniProt P17948 129-230, looked up)
chain: SDTGRPFVEMYSEIPEIIHMTEGRELVIPCRVTSPNITVTLKKFPLDTLIPDGKRIIWDSRKGFIISNATYKEIGLLTCEATVNGHLYKTNYLTHRQTNTIIDVVLSPSHGIELSVGEKLVLNCTARTELNVGIDFNWEYPSSKHQHKKLVNRDLKTQSGSEMKKFLSTLTIDGVTRSDQGLYTCAASSGLMTKKNSTFVRVHEK
notes: domain: 2nd Ig-like domain of FLT-1;domain: 3rd Ig-like domain of KDR; also called VEGF Trap (R1R2); not shown: human immunoglobulin Fc (IgFc)

Reference: patent publication US20100272719A1 (CHENGDU KANGHONG BIOTECHNOLOGIES, published 2010)
